Measurements published in patent publication US20170247716A1 (PIONEER HI BRED INTERNATIONAL, published 2017).

T1: AtRTE1-Cub-PLV (Arabidopsis, UniProt F4ITL6 1-250)
T1 construct: Bait of the mating-based split-ubiquitin yeast two-hybrid system; also called AtRTE1 bait construct; not shown: C-terminal half of ubiquitin (Cub); synthetic transcription factor PLV (protease A-LexA-VP16)
T1 sequence (looked up): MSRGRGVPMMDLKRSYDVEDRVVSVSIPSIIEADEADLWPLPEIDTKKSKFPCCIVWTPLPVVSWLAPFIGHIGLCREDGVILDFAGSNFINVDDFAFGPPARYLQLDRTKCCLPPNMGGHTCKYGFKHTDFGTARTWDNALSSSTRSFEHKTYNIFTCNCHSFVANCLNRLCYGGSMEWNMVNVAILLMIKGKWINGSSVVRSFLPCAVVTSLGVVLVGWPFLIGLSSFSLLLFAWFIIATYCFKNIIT

B1: AtARL-NubG (other, UniProt Q8RXL7 1-135, looked up)
chain: MIREFSSLQNDIINIQEHYSLNNNMDVRGDHNRKNTSFRGSAPAPIMGKQELFRTLSSQNSPRRLISASYFSLESMVVLVGLTASLLILPLILPPLPPPPFMLLLIPIGIMVLLMVLAFMPSSNSKHVSSSSTFM
notes: Prey of the split-ubiquitin yeast two-hybrid system; also called Arabidopsis ARGOS-LIKE (ARL); not shown: N-terminal half of a mutated ubiquitin (NubG)

Experiments:
AtRTE1-Cub-PLV = molecular target: T1, AtRTE1-Cub-PLV; test: yeast split-ubiquitin two-hybrid
Experimental: (§1) (B) β-Galactosidase assay for yeast diploid cells expressing AtRTE1-Cub-PLV and various ARGOS-NubG fusion proteins. Yeast cells were cultured in SC-Leu-Trp liquid medium. The β-Galactosidase (β-Gal) activity assay uses […] as a substrate. (C) Growth of yeast diploid cells from the mating of haploid strains containing ARGOS-NubG constructs and negative control […] construct. The plates were incubated at 28° C. for 4 days. (D) Liquid β-Galactosidase assay for yeast diploid cells expressing negative control AtCHX20-Cub-PLV and various ARGOS-NubG fusion proteins.
(§2) (A) Growth of yeast diploid cells on SC dropout media to show protein-protein interaction of ZmRTL4 with Arabidopsis and maize ARGOS. The SC-Leu-Trp and SC-Leu-Trp-His-Ade media contain 134 and 375 μM Met, respectively. The plates were incubated at 28° C. for 4 days. (B) β-Galactosidase assay for yeast diploid cells expressing ZmRTE4-Cub-PLV and various ARGOS-NubG fusion proteins. (C) Growth of yeast diploid cells on SC dropout media to show protein-protein interaction of ZmRTL2 with Arabidopsis and maize ARGOS. The SC-Leu-Trp and SC-Leu-Trp-His-Ade media contain 134 μM Met. The plates were incubated at 28° C. for 5 days. (D) β-Galactosidase assay for yeast diploid cells expressing ZmRTE2-Cub-PLV and various ARGOS-NubG fusion proteins. […]

AtARL-NubG = molecular target: B1; test: yeast split-ubiquitin two-hybrid
Experimental: as §1, §2

binding result (AtRTE1-Cub-PLV)	binding result (AtARL-NubG)	Binder
binds	–	B1
–	binds	ZmRTL4-Cub-PLV (other, domain: C-terminal half of ubiquitin (Cub); Bait of the split-ubiquitin yeast two-hybrid system; the legend prints ZmRTE4-Cub-PLV; also called ZmRTE4-Cub-PLV; ZmRTL4 bait construct; not shown: C-terminal half of ubiquitin (Cub); synthetic transcription factor PLV (protease A-LexA-VP16)) MENDRRQLGQIDPRRARFPCCIVWTPIPFITWLVPFIGHIGICREDGVILDFSGPHFVSVDNFAFGAVARYIQVNCDECYKLIEPEGDATWDGALKKGTQEFQNRNYNLFTCNCHSFVANNLNRLFYSGHDEWNVVSLAAVMFLRGRWVSTASVVKTLLPFAVVLSIGTFLGGTTFLTGLLAFAAAMTVWFLVGTYCIKGLIEL
